Measured values published in article PMC11938149.

Target: T1, Bacillus subtilis FtsZ^1-382 (for light scattering) (Bacillus subtilis) (UniProt P17865)
T1 sequence: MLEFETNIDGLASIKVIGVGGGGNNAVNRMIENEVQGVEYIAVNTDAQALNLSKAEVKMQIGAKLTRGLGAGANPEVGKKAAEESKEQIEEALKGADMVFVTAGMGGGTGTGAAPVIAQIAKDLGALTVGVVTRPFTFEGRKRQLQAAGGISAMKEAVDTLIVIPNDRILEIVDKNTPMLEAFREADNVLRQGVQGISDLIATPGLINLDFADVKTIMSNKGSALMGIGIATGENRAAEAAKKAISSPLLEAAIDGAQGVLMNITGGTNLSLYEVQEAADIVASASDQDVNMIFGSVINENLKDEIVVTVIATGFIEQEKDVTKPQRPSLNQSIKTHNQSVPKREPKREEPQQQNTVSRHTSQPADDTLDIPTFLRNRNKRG

inhibition of FtsZ polymerization by light scattering (5 uM FtsZ, 15 uM MinC, HMK buffer pH 7.7, 100 mM potassium): 50%
B1: Bacillus subtilis MinC^1-224 wild type (for light scattering) (natural protein)
chain: MKTKKQQYVTIKGTKNGLTLHLDDACSFDELLDGLQNMLSIEQYTDGKGQKISVHVKLGNRFLYKEQEEQLTELIASKKDLFVHSIDSEVITKKEAQQIREEAEIISVSKIVRSGQVLQVKGDLLLIGDVNPGGTVRAGGNIFVLGSLKGIAHAGFNGNNQAVIAASEMLPTQLRINHVLNRSPDHIQKGNEMECAYLDTDGNMVIERLQHLAHLRPDLTRLEG
